Measured values from PMC3463739 (Protein expression and purification, 2012).
Like-named read-outs stand apart in the source and are kept apart here.

B1: [PPE172_(15)], recombinant polyprotein of 15 tandem repeats of the human titin exon 172 PEVK module (other)
chain: PEPPKEVVPEKKAPVAPPKKPEVPPVKVPEPPKEVVPEKKAPVAPPKKPEVPPVKVPEPPKEVVPEKKAPVAPPKKPEVPPVKVPEPPKEVVPEKKAPVAPPKKPEVPPVKVPEPPKEVVPEKKAPVAPPKKPEVPPVKVPEPPKEVVPEKKAPVAPPKKPEVPPVKVPEPPKEVVPEKKAPVAPPKKPEVPPVKVPEPPKEVVPEKKAPVAPPKKPEVPPVKVPEPPKEVVPEKKAPVAPPKKPEVPPVKVPEPPKEVVPEKKAPVAPPKKPEVPPVKVPEPPKEVVPEKKAPVAPPKKPEVPPVKVPEPPKEVVPEKKAPVAPPKKPEVPPVKVPEPPKEVVPEKKAPVAPPKKPEVPPVKVPEPPKEVVPEKKAPVAPPKKPEVPPVKVPEPPKEVVPEKKAPVAPPKKPEVPPVKV
B2: nebulin SH3 (domain or fragment, human, UniProt P20929 8466-8525, looked up)
chain: TAGKIFRAMYDYMAADADEVSFKDGDAIINVQAIDEGWMYGTVQRTGRTGMLPANYVEAI

Experiments:
nebulin SH3 [1] = target: B2; assay: ELISA
nebulin SH3 [2] = target: B2; assay: ELISA; remark: listed apart in the source
nebulin SH3 [3] = target: B2; assay: SPR
[4] = target: B1; assay: ELISA
[5] = target: B1; assay: ELISA

| Binder | Kd (nebulin SH3 [1]) | Kd (nebulin SH3 [2]) | Kd (nebulin SH3 [3]) | KD in the presence of 50 μg/ml RT11 [4] | KD in the presence of 50 μg/ml RT11 [5] |
| --- | --- | --- | --- | --- | --- |
| B1 | 7 µM | 23 µM | 340 µM |  |  |
| B2 |  |  |  | 9.69 µM | 471 µM |
